B1: EEB9 PEG4-MMAF conjugate (designed binder)
chain: MLPAPKNLVVSRVTEDSARLSWTAPDAAFDSFQIYYSELLSYGEAIVLTVPGSERSYDLTGLCPGTEYTVSINGVKGGTRSWSLSAIFTTAPAPAPAPAPLPAPKNLVVSRVTEDSARLSWTAPDAAFDSFQIYYSELLSYGEAIVLTVPGSERSYDLTGLCPGTEYTVSINGVKGGTRSWSLSAIFTTAPAPAPAPAPTIDEWLLKEAKEKAIEELKKAGITSDYYFDLINKAKTVEGVNALKDEILKA
modifications: Iodoacetyl-PEG4-MMAF on cysteines; 2 MMAF after conjugation
notes: Bivalent P155R8-G3 with ABDcon12
B2: EEB10 PEG4-MMAF conjugate (designed binder)
chain: MLPAPKNLVVSRVTEDSARLSWTAPDAAFDSFQIYYSELLSYGEAIVLTVPGSERSYDLTGLCPGTEYTVSINGVKGGTRSWSLSAIFTTAPCPAPAPAPLPAPKNLVVSRVTEDSARLSWTAPDAAFDSFQIYYSELLSYGEAIVLTVPGSERSYDLTGLCPGTEYTVSINGVKGGTRSWSLSAIFTTAPCPAPAPAPTIDEWLLKEAKEKAIEELKKAGITSDYYFDLINKAKTVEGVNALKDEILKA
modifications: Iodoacetyl-PEG4-MMAF on cysteines; 4 MMAF after conjugation
notes: as for B1
B3: EEB11 PEG4-MMAF conjugate (designed binder)
chain: MLPAPKNLVVSRVTEDSARLSWTAPDAAFDSFQIYYSELLSYGEAIVLTVPGSERSYDLTGLCPGTEYTVSINGVKGGTRSWSLSAIFTTAPCPAPAPAPLPAPKNLVVSRVTEDSARLSWTAPDAAFDSFQIYYSELLSYGEAIVLTVPGSERSYDLTGLCPGTEYTVSINGVKGGTRSWSLSAIFTTAPAPAPAPAPTIDEWLLKEAKEKAIEELKKAGITSDYYFDLINKAKTVEGVNALKDEILKA
modifications: Iodoacetyl-PEG4-MMAF on cysteines; 3 MMAF after conjugation
notes: as for B1
B4: EEB8 PEG4-MMAF conjugate (designed binder)
chain: MLPAPKNLVVSRVTEDSARLSWTAPDAAFDSFQIYYSELLSYGEAIVLTVPGSERSYDLTGLCPGTEYTVSINGVKGGTRSWSLSAIFTTAPAPAPAPAPLPAPKNLVVSRVTEDSARLSWTAPDAAFDSFQIYYSELLSYGEAIVLTVPGSERSYDLTGLKPGTEYTVSINGVKGGTRSWSLSAIFTTAPAPAPAPAPTIDEWLLKEAKEKAIEELKKAGITSDYYFDLINKAKTVEGVNALKDEILKA
modifications: Iodoacetyl-PEG4-MMAF on cysteine; 1 MMAF after conjugation
B5: 83v15-SPION (designed binder)
chain: MLPAPKNLVVSEVTEDSARLSWDDPWAFYESFLIQYQESEKVGEAIVLTVPGSERSYDLTGLKPGTEYTVSIYGVHNVYKDTNMRGLPLSAIFTTGGHHHHHHC
modifications: C-terminal Cys coupled to a superparamagnetic iron oxide nanoparticle (SPION)
notes: Cysteine variant of P54AR4-83v2 on a nanoparticle; also called 83v15 = C-terminal
B6: 83v10-SPION (designed binder)
chain: MLPAPKNLVVSEVTCDSARLSWDDPWAFYESFLIQYQESEKVGEAIVLTVPGSERSYDLTGLKPGTEYTVSIYGVHNVYKDTNMRGLPLSAIFTTGGHHHHHH
modifications: Cys 15 coupled to a superparamagnetic iron oxide nanoparticle (SPION)
notes: Cysteine variant of the EGFR-targeting FN3 domain P54AR4-83v2, many copies on a nanoparticle (50:1 molar ratio in the reaction); also called 83v10 = E15C
B7: 83v12-SPION (designed binder)
chain: MLPAPKNLVVSEVTEDSACLSWDDPWAFYESFLIQYQESEKVGEAIVLTVPGSERSYDLTGLKPGTEYTVSIYGVHNVYKDTNMRGLPLSAIFTTGGHHHHHH
modifications: Cys 19 coupled to a superparamagnetic iron oxide nanoparticle (SPION)
notes: Cysteine variant of P54AR4-83v2 on a nanoparticle; also called 83v12 = R19C

target: T1, epidermal growth factor receptor (EGFR) (human, UniProt P00533 25-1210); assay: table column 'Binding antigen'; no assay given
T1 construct: whole, on cells; The cell assays use human tumour lines; also called hEGFR

Binding result, binds:
B1
B2
B3
B4

target: T1, epidermal growth factor receptor (EGFR); assay: flow cytometry on H292 cells
Procedure: To determine the activity of the recently created FN3 domain molecule-SPION, cell targeting assays were set-up in vitro. H292 cells were dissociated from a T-150 cell culture flask using Hank's Enzyme free dissociation buffer (Invitrogen—13150-016). The cells and dissociation buffer were incubated for 15 minutes in a cell incubator. The flask was gently tapped to dissociate any residually bound cells and the buffer and cells were transferred to a 15 mL conical tube. The cells were spun at 1,000 rcf for 2 minutes. The supernatant was gently removed with careful consideration paid to not disturbing the pelleted cells. The cell pellet left over was reconstituted in 1.5 mL of phenol-red free RPMI 1640 media with 10% FBS. It was determined that the suspension contained approximately […]. 100 μL of this suspension was added to each well of a 96-well plate. FN3 domain molecule-SPION sample concentrations are listed above. From these known concentrations, FN3 domain molecule-SPION was added to each well so that the final concentration of FN3 domain molecule-SPION with the cells was 100 μg/mL Fe. Samples were plated in triplicate and incubated for 30 minutes and then purified via 3× centrifugation at 1,000×rcf and resuspension in dPBS pH 7.2. Samples were suspended in a final volume of 300 μL and moved to a clear, flat bottom 96-well plate for analysis on the Guava HTS flow cytometer. A total of 8,000 cells were counted for each sample. Following flow, population samples were analyzed using FlowJo. Each sample was gated so that only live cells were assessed for fluorescence. Histograms were obtained wherein the black peak (the peak to the left side of the graph) is the autofluorescence obtained from unlabeled H292 cells. The blue peak (the peak to the right side of the graph) corresponds to the sample title above the histogram. 83v10, 83v12 and 83v15 are positively shifted compared to the tencon25 control or blank cells (FIGS. 1A-1D). […] All samples were normalized by subtracting the blank cell autofluorescence from the mean fluorescent intensities of each sample. […]

Binding result, binds:
B5
B6
B7

Source: US20190184028A1 (Janssen / Centocor, published 2019)
